Columns and labels:
NC(CC(=O)O)Cc1ccccc1 = experiment: purified protein; settings: 5.2 mM 2-oxoglutarate, 0.1 mM PLP, 100 mM potassium borate pH 9, 30 °C, donor 2-10 mM
Source text: (§1) glutamate quantification, Lineweaver-Burk on VboTA (Variovorax boronicumulans ω-transaminase)
O=C(O)CCC(=O)C(=O)O = experiment: purified protein; settings: 10 mM β-phenylalanine, 0.1 mM PLP, 100 mM potassium borate pH 9, 30 °C, 2-8 mM 2-oxoglutarate
Source text: as §1
CC(C)C(N)CC(=O)O = experiment: purified protein; settings: 5.2 mM 2-oxoglutarate, 0.1 mM PLP, 100 mM potassium borate pH 9, 30 °C, donor 2-10 mM
Source text: as §1
NC(CC(=O)O)c1ccccc1 = experiment: purified protein; settings: 5.2 mM 2-oxoglutarate, 0.1 mM PLP, 100 mM potassium borate pH 9, 30 °C, donor 2-10 mM, Km above tested range
Source text: as §1
CC(N)CC(=O)O = experiment: purified protein; settings: 5.2 mM 2-oxoglutarate, 0.1 mM PLP, 100 mM potassium borate pH 9, 30 °C, donor 2-10 mM
Source text: as §1

[1] = molecular target: T1, VboTA (Variovorax boronicumulans ω-transaminase) (Variovorax boronicumulans, UniProt Z9A1T7NCF1); experiment: activity at varied substrate concentration; assay type: biochemical; settings: substrate inhibition; pH 9, 30 °C
T1 construct: full length, 433 aa, C-terminal His-tag (pET21b, NdeI/XhoI), codon-optimised, E. coli BL21(DE3), Ni-NTA
T1 sequence (Z9A1T7NCF1 1-433): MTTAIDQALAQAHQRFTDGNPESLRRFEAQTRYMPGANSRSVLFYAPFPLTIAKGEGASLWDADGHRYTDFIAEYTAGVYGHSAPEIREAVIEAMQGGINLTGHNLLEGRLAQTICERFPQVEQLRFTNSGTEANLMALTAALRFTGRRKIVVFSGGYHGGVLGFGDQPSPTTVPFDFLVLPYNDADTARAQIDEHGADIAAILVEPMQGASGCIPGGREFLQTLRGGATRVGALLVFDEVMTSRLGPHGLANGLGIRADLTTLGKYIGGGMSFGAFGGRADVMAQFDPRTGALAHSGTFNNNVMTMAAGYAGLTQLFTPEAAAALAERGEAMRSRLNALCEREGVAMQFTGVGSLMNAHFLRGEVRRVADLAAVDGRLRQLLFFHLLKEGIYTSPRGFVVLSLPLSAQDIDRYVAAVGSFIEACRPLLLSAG

“VboTA (Variovorax boronicumulans ω-transaminase) (Variovorax boronicumulans)” gave a Km (NC(CC(=O)O)Cc1ccccc1) of 0.7 ± 0.2 mM, a Vmax (NC(CC(=O)O)Cc1ccccc1) of 1.1 µmol/min and a kcat (NC(CC(=O)O)Cc1ccccc1) of 1.6 ± 0.07 s⁻¹. It also gave a kcat/Km (NC(CC(=O)O)Cc1ccccc1) of 2200 ± 100 M⁻¹ s⁻¹, a Km (O=C(O)CCC(=O)C(=O)O) of 2.1 ± 0.4 mM and a Vmax (O=C(O)CCC(=O)C(=O)O) of 24.9 µmol/min. The kcat (O=C(O)CCC(=O)C(=O)O) was 34.2 ± 2.7 s⁻¹, the kcat/Km (O=C(O)CCC(=O)C(=O)O) was 16200 ± 1300 M⁻¹ s⁻¹ and the Km (CC(C)C(N)CC(=O)O) was 44.7 ± 1.2 mM. It also gave a Vmax (CC(C)C(N)CC(=O)O) of 48.5 µmol/min, a kcat (CC(C)C(N)CC(=O)O) of 66.5 ± 7.1 s⁻¹ and a kcat/Km (CC(C)C(N)CC(=O)O) of 1500 ± 200 M⁻¹ s⁻¹. For the same compound, the Km (NC(CC(=O)O)c1ccccc1) was 24.7 ± 3.8 mM, the Vmax (NC(CC(=O)O)c1ccccc1) was 20.5 µmol/min and the kcat (NC(CC(=O)O)c1ccccc1) was 28.1 ± 3.3 s⁻¹. The kcat/Km (NC(CC(=O)O)c1ccccc1) was 1100 ± 100 M⁻¹ s⁻¹, the Km (CC(N)CC(=O)O) was 4.4 ± 0.3 mM and the Vmax (CC(N)CC(=O)O) was 1.4 µmol/min. For the same compound, the kcat (CC(N)CC(=O)O) was 2 ± 0.2 s⁻¹ and the kcat/Km (CC(N)CC(=O)O) was 450 ± 50 M⁻¹ s⁻¹.

In the case of `O=C(O)CCC(=O)C(=O)O` [2-Oxoglutaric acid], the “loss of activity at 20 mM” value [1] is reported as ~ 70%.

Reference: PMC9850050, “A transaminase with β-activity from Variovorax boronicumulans for the production of enantiopure β-amino acids” (Heliyon, 2022)
